Experimental findings from PMC10786891, “Massively parallel profiling of RNA-targeting CRISPR-Cas13d” are described below.

Sequences and labels used below:
T1: EsCas13d, nuclease-dead (Eubacterium siraeum, UniProt B0MS50, R295A;H300A;R849A;H854A)
T1 sequence: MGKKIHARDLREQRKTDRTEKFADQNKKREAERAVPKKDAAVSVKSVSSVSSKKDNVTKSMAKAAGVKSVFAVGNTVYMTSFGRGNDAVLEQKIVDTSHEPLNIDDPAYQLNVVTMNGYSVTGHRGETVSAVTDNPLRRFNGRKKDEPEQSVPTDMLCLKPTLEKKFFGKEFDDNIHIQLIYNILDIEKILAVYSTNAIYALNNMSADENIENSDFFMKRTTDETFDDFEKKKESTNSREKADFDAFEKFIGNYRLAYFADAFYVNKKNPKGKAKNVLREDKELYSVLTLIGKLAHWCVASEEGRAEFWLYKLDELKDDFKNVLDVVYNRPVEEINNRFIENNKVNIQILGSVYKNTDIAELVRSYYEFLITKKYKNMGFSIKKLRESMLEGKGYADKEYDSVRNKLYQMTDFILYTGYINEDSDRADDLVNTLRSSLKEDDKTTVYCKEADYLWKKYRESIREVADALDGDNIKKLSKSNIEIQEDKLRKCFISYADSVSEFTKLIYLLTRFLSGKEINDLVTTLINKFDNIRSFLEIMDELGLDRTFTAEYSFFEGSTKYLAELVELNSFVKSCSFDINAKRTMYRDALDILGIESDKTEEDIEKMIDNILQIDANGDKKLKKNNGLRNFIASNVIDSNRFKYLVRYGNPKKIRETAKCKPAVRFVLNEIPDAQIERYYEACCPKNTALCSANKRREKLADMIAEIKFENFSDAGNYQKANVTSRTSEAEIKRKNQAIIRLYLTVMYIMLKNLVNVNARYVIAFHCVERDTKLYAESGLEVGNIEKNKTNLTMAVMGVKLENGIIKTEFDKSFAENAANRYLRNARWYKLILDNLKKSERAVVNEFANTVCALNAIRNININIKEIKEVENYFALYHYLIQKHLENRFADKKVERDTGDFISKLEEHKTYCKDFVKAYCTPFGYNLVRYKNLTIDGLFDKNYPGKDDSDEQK

B1: target 1 C7G,A14C (mixed)
RNA 1: CACCCGUGCAAAAAUGCAGGGGUCUAAAACUGAGCGGAUAACCUCUCUAUGG
RNA 2: GGGAAUGGAUCCACAUCUACGAAUUCGUACCAUAGAGCGGUUAUGCGCUCACCGAGAUCGGAAGAGCACACGU
B2: target 1 insC 3' of 10,insG 3' of 10 (mixed)
RNA 1: B1 RNA 1
RNA 2: GGGAAUGGAUCCACAUCUACGAAUUCGUACCAUAGAGAGGUUCGAUCCGCUCACCGAGAUCGGAAGAGCACACGU
B3: target 1 insC 3' of 11,insG 3' of 2 (mixed)
RNA 1: B1 RNA 1
RNA 2: GGGAAUGGAUCCACAUCUACGAAUUCGUACCAUAGAGAGGUCUAUCCGCUCGACCGAGAUCGGAAGAGCACACGU
B4: target 1 del5,del7 (mixed)
RNA 1: B1 RNA 1
RNA 2: GGGAAUGGAUCCACAUCUACGAAUUCGUACCAUAGAGAGGUUAUCCUCACCGAGAUCGGAAGAGCACACGU
B5: target 1 insC 3' of 11,insG 3' of 10 (mixed)
RNA 1: B1 RNA 1
RNA 2: B2 RNA 2 with U42C, C43U
B6: target 1 C6U,U11G (mixed)
RNA 1: B1 RNA 1
RNA 2: B1 RNA 2 with C38A, U41G, G45C, C46U
B7: target 1 insU 3' of 21,insA 3' of 7 (mixed)
RNA 1: B1 RNA 1
RNA 2: GGGAAUGGAUCCACAUCUACGAAUUCGUACCUAUAGAGAGGUUAUCACGCUCACCGAGAUCGGAAGAGCACACGU
B8: target 1 U3C,A9C (mixed)
RNA 1: B1 RNA 1
RNA 2: B1 RNA 2 with C38A, A43C, G45C, U49C
B9: target 1 insA 3' of 7,insA 3' of 7 (mixed)
RNA 1: B1 RNA 1
RNA 2: B2 RNA 2 with C43A, G44U, A45C, U46A, C47A
B10: target 1 insA 3' of 22,insU 3' of 18 (mixed)
RNA 1: B1 RNA 1
RNA 2: GGGAAUGGAUCCACAUCUACGAAUUCGUACACAUAUGAGAGGUUAUCCGCUCACCGAGAUCGGAAGAGCACACGU
B11: target 1 C6A,U8C (mixed)
RNA 1: B1 RNA 1
RNA 2: B1 RNA 2 with C38A, U44C, G45C, C46A
B12: target 1 G5U,A9U (mixed)
RNA 1: B1 RNA 1
RNA 2: B1 RNA 2 with C38A, A43U, G45C, G47U
B13: target 1 C6A,C7U (mixed)
RNA 1: B1 RNA 1
RNA 2: B1 RNA 2 with C38A, G45U, C46A
B14: target 1 insU 3' of 13,insA 3' of 7 (mixed)
RNA 1: B1 RNA 1
RNA 2: B2 RNA 2 with G40U, U41G, C43U, G44A, A45U, U46C, C47A
B15: target 1 insU 3' of 20,insG 3' of 6 (mixed)
RNA 1: B1 RNA 1
RNA 2: B7 RNA 2 with U32A, A33U, A47C, C48G
B16: target 1 U3G,U10A (mixed)
RNA 1: B1 RNA 1
RNA 2: B1 RNA 2 with C38A, U42A, G45C, U49G
B17: target 1 insG 3' of 22,insC 3' of 5 (mixed)
RNA 1: B1 RNA 1
RNA 2: B7 RNA 2 with C31G, U32C, A47C, C48G, G49C
B18: target 1 U3G,A16G (mixed)
RNA 1: B1 RNA 1
RNA 2: B1 RNA 2 with A36G, C38A, G45C, U49G
B19: target 1 insA 3' of 17,insG 3' of 10 (mixed)
RNA 1: B1 RNA 1
RNA 2: B2 RNA 2 with G37A, A38G, G39A, U41G, C43U
B20: target 1 insU 3' of 12,insU 3' of 9 (mixed)
RNA 1: B1 RNA 1
RNA 2: B2 RNA 2 with C43U, G44A, A45U
B21: target 1 C6U,C22U (mixed)
RNA 1: B1 RNA 1
RNA 2: B1 RNA 2 with C30U, C38A, G45C, C46U
B22: target 1 complement block 4-10 (mixed)
RNA 1: B1 RNA 1
RNA 2: B1 RNA 2 with C38A, U42A, A43U, U44A, C46G, G47C, C48G
B23: target 1 insA 3' of 3,insC 3' of 3 (mixed)
RNA 1: B1 RNA 1
RNA 2: B2 RNA 2 with C43A, G44U, A45C, U46C, C47G, G49U, C50A, U51C
B24: target 1 insU 3' of 15,insC 3' of 14 (mixed)
RNA 1: B1 RNA 1
RNA 2: B2 RNA 2 with A38U, G39A, G40C, U41G, U42G, C43U, G44U
B25: target 1 insC 3' of 15,insU 3' of 13 (mixed)
RNA 1: B1 RNA 1
RNA 2: B2 RNA 2 with A38C, G39A, U42G, C43U, G44U
B26: target 1 insC 3' of 13,insG 3' of 9 (mixed)
RNA 1: B1 RNA 1
RNA 2: B2 RNA 2 with G40C, U41G, C43U, G44A, A45G
B27: target 1 del3,del14 (mixed)
RNA 1: B1 RNA 1
RNA 2: B4 RNA 2 with A38G, G40U, U42A, A43U, U44C, C46G, U47C
B28: target 1 insC 3' of 20,insG 3' of 2 (mixed)
RNA 1: B1 RNA 1
RNA 2: B7 RNA 2 with U32A, A33C, A47C, C48G, G49C, C50U, U51C, C52G
B29: target 1 U3G,A14C (mixed)
RNA 1: B1 RNA 1
RNA 2: B1 RNA 2 with G45C, U49G
B30: target 1 insC 3' of 14,insG 3' of 11 (mixed)
RNA 1: B1 RNA 1
RNA 2: B2 RNA 2 with G39C, U41G, C43G, G44U
B31: target 1 insG 3' of 11 (mixed)
RNA 1: B1 RNA 1
RNA 2: GGGAAUGGAUCCACAUCUACGAAUUCGUACCAUAGAGAGGUGUAUCCGCUCACCGAGAUCGGAAGAGCACACGU
B32: target 1 U3G,A18U (mixed)
RNA 1: B1 RNA 1
RNA 2: B1 RNA 2 with A34U, C38A, G45C, U49G

Where a chain is given by its changes, count along the chain named. Numbers in names are those of the source.

This data set addresses T1, EsCas13d, nuclease-dead. Description: crRNA (strand 1, pre-loaded); Mg2+; 40 mM Tris-HCl pH 7.5, 150 mM NaCl, 6 mM MgCl2, 1 mM DTT, 0.1% Tween-20, 0.2 mg/ml BSA; 25 C; 10 min per concentration, then washed. The settings on record: tags: His6-TwinStrep-SUMO cleaved; N-terminal SNAP kept (SNAP-Surface 488); label: 3' end held by stalled T7 RNA polymerase.
What is called Kd is the concentration at which binding is half-saturated. The low end stands for a tighter complex, the high end for a looser complex. In turn, B1 came in with a Kd of 33.5 ± 2.9 nM.

On to B2, for which the Kd turned out to be 13.6 ± 0.5 nM.

As for B3, binding was characterised by a dissociation constant (Kd) of 42 ± 14 nM.

B4: the Kd turned out to be 13.9 ± 0.7 nM.

On to B5, for which binding was put at a Kd of 23.4 ± 2.5 nM.

On to B6, for which the Kd came to 16.2 ± 0.9 nM.

The molecule B7 came in with a Kd of 20.3 ± 0.9 nM.

The molecule B8 showed a Kd of 28.4 ± 3 nM.

B9 showed a Kd of 7 ± 0.5 nM.

The molecule B10 came in with a Kd of 47 ± 6 nM.

Molecule B11 came in with a Kd of 10.7 ± 0.6 nM.

As to B12, the Kd came to 97 ± 20 nM.

As to B13, binding was put at a Kd of 7.1 ± 0.5 nM.

Regarding B14, the dissociation constant Kd was 13.6 ± 0.6 nM.

Regarding B15, the equilibrium dissociation constant (Kd) was determined as 16.3 ± 0.9 nM.

In turn, B16 came in with a Kd of 17.2 ± 1.3 nM.

As to B17, the Kd turned out to be 67 ± 23 nM.

The molecule B18 gave a Kd of 27.1 ± 1.5 nM.

On to B19, for which binding was characterised by a dissociation constant (Kd) of 43 ± 9 nM.

In the case of B20, the affinity, expressed as Kd, was 29 ± 5 nM.

As for B21, the Kd was found to be 14.8 ± 1.9 nM.

As to B22, the affinity, expressed as Kd, was 13.4 ± 0.4 nM.

The molecule B23 had a Kd of 62 ± 19 nM.

In turn, B24 came in with a Kd of 43 ± 6 nM.

Consider B25, for which the Kd worked out at 26 ± 5 nM.

On to B26, for which the Kd came to 13 ± 0.9 nM.

Take B27: the Kd was 44 ± 4 nM.

B28: the Kd came to 11.6 ± 0.5 nM.

As to B29, binding was put at a Kd of 28.6 ± 1.8 nM.

Turning to B30, the Kd came out at 57 ± 13 nM.

With B31, the Kd was 33.3 ± 3.1 nM.

With B32, the Kd was determined as 20.5 ± 1.3 nM.
